Measured values published in patent US7790363B2, “Diagnostic test for vitamin B12” (Abbott Laboratories Inc., priority 2005, dated 2010).
One block for each molecule: values may come before it.

Tests used:
[1] = Solubility of the protein expressed in E. coli; format: physicochemical; settings: expression in E. coli from the named vector
Description: Using the Porcine IF cDNA14-1248 (SEQ ID NO: 5) as the template and the Forward Primer pIFMP-ForI (SEQ ID NO: 14) and Reverse Primer pIFMP-RevXhoI (SEQ ID NO: 15), the cDNA encoding the Porcine IF cDNA54-1254-Mature Peptide was amplified by PCR. The PCR profile was as follows: one initial denaturation step at a temperature of 95° C. for 5 minutes; then 33 cycles of the following conditions: a temperature of 95° C. for 30 seconds, then a temperature of 57° C. for 30 seconds, then a temperature of 72° C. for 1 minute; followed by a final extension at a temperature of 72° C. for 5 minutes. This PCR fragment was subcloned into pGEMEX-1 expression vector (purchased from Promega Corporation, Madison, Wis.).
To produce a soluble version of this protein, cDNA encoding the Porcine IF cDNA54-1254-Mature Peptide was amplified by PCR using IF cDNA14-1248 (SEQ ID NO: 5) as the template and the Forward primer pIF-PIC-MP-For EcoR1 (SEQ ID NO: 16) and the Reverse pIF-MP-pMAL-SaI1 Rev primer (SEQ ID NO: 17) and the following PCR conditions: one initial denaturation step at a temperature of 95° C. for 5 minutes; then 35 cycles of the following conditions: a temperature of 95° C. for 30 seconds, then a temperature of 56° C. for 30 seconds, then a temperature of 72° C. for 1 minute; followed by a final extension at a temperature of 72° C. for 5 minutes. […]

[2] = tested on: anti-intrinsic factor antibody; experiment: Western blotting with anti-intrinsic factor antibody; format: binding; settings: E. coli lysate, SDS-PAGE, blotted onto nitrocellulose, probed with anti-intrinsic factor antibody
Source text: (§1) FIG. 3 illustrates the binding of recombinant porcine intrinsic factor to anti-intrinsic factor antibody by Western blotting. The E. coli cells were lysed and the proteins were resolved using SDS-PAGE and blotted onto a nitrocellulose membrane. The membrane was then probed with anti-intrinsic factor antibody. Lane 1 contains molecular weight markers (marked in kilodaltons). Lanes 2, 3, 4, and 5 represent cells from various clones expressing recombinant porcine intrinsic factor. Lane 6 contains the native porcine intrinsic factor (purified from hog (Sus scrofa) gut).
(§2) The E. Coli lysate containing the expressed recombinant porcine intrinsic factor was run on an SDS-PAGE (Polyacrylamide Gel Electrophoresis), and the gel was blotted onto nitrocellulose. This blot was probed with anti-intrinsic factor antibody and developed using an appropriate substrate. […] Referring now to FIG. 3, Lane 1 contains molecular weight markers (marked in kilodaltons). Lanes 2, 3, 4, and 5 represent cells from various clones expressing recombinant porcine intrinsic factor. Lane 6 contains the native porcine intrinsic factor (purified from hog (Sus scrofa) gut).

[3] = vitamin B12-Alkaline Phosphatase conjugate blot; format: binding; settings: E. coli lysate, SDS-PAGE, blotted onto nitrocellulose, probed with vitamin B12-alkaline phosphatase conjugate
Source text: as §1, with “FIG. 2” for “FIG. 3”, “to vitamin B12.” for “to anti-intrinsic factor antibody by Western blotting.”, “was” for “was then”, “with vitamin B12 conjugate to alkaline phosphatase. […]” for “with anti-intrinsic factor antibody.”
as §2, with “E. coli” for “E. Coli”, “with vitamin B12-alkaline phosphatase conjugate” for “with anti-intrinsic factor antibody”, “FIG. 2,” for “FIG. 3,”

[4] = "ARCHITECT" Intrinsic Factor Binding Capacity Assay (one-step competitive assay); settings: read from vitamin B12 calibration curve, converted to binding capacity using an equation
Description: The vitamin B12-binding capacity of the recombinant porcine Intrinsic Factor was measured using in “ARCHITECT” Intrinsic Factor Binding Capacity Assay. The assay is a one-step competitive assay where intrinsic factor from the test sample competes with intrinsic factor coated onto microparticles for the vitamin B12-acridinium tracer. Thus, signal in the assay is inversely proportional to the concentration of intrinsic factor in the test sample. The results are read from a vitamin B12 calibration curve, and the vitamin B12 concentration results are converted to binding capacity using an equation. The Binding Capacity Value for the recombinant porcine intrinsic factor was determined to be 904 ng/ml.

B1: Porcine IF cDNA54-1254-Mature Peptide: Porcine intrinsic factor mature peptide, 399 amino acids, SEQ ID NO: 9, expressed from pGEMEX-1 expression vector (protein)
chain: STQTRSSCSVPSAEQPLVNGIQVLMEQSVTSSAFPNPSILIAMNLAGAYNTEAQELLTYKLMATNTSDLTTGQLALTIMALTSSCRDPGNRIAILQGQMENWAPPSLDTHASTFYEPSLGILTLCQNNPEKTLPLAARFAKTLLANSSPFNMDTGAMATLALTCMYNKIPVGSEEGYRALFSQVLRNTVENISMRIQDNGIIGNIYSTGLAMQALSVTPEQPNKEWDCQKTMDTVLTEIKEGKFHNPMAIAQILPSLKGKTYLDVPHVSCSPGHEVPPTLPNHPSPVPTPAPNITVIYTINNQLRGVELLFNETISVSVKRGSVLLIVLEEAQRKNPKFKFETTMTSWGPVVSSINNIAENVNHRTYWQFLSGQTPLNEGVADYIPFNHEHITANFTQY
modifications: S. scrofa
solubility of the expressed protein [1]: insoluble and formed inclusion bodies

binding to vitamin B12 (band developed color) [3]: bound to vitamin B12
Binding Capacity Value (vitamin B12-binding capacity) [4]: 904 ng/mL
B2: recombinant porcine intrinsic factor: Recombinant porcine intrinsic factor produced in E. coli from the pMAL-IF or pET32a-IF vector, affinity purified (protein)
chain: YNLKAQKLLTYKLMATNTSDLTTGQLALTIMALTSSCRDPGNRIAILQGQMENWAPPSLDTHASTFYEPSLGILTLCQNNPEKTLPLAARFAKTLLANSSPFNMDTGAMATLALTCMYNKIPVGSEEGYRALFSQVLRNTVENISMRIQDNGIIGNIYSTGLAMQALSVTPEQPNKEWDCQKTMDTVLTEIKEGKFHNPMAIAQILPSLKGKTYLDVPHVSCSPGHEVPPTLPNHPSPVPTPAPNITVIYTINNQLRGVELLFNETISVSVKRGSVLLIVLEEAQRKNPKFKFETTMTSWGPVVSSINNIAENVNHRTYWQFLSGQTPLNEGVADYIPFNHEHITANFTQY
modifications: S. scrofa
binding to anti-intrinsic factor antibody (band developed color) [2]: recognized by the antibody
